Source: patent publication US20150093802

Columns and labels:
Test in all cases: one_hybrid
[1] = tested on: OZ119 (CF877R) (synthetic); conditions: bacterial two-hybrid lacZ, SD 0.35
[2] = tested on: OZ136 (CF877R) (synthetic); conditions: bacterial two-hybrid lacZ, SD 0.06
[3] = tested on: OZ121 (CF877R) (synthetic); conditions: bacterial two-hybrid lacZ, SD 0.19
[4] = tested on: OZ142 (CF877R) (synthetic); conditions: bacterial two-hybrid lacZ, SD 0.16
[5] = tested on: OZ123 (CF877R) (synthetic); conditions: bacterial two-hybrid lacZ, SD 0.63
[6] = tested on: OZ140 (CF877R) (synthetic); conditions: bacterial two-hybrid lacZ, SD 0.48
[7] = tested on: OZ134 (CF877R) (synthetic); conditions: bacterial two-hybrid lacZ, SD 0.19
[8] = tested on: OZ137 (CF877R) (synthetic); conditions: bacterial two-hybrid lacZ, SD 0.04
[9] = tested on: OZ130 (CF877R) (synthetic); conditions: bacterial two-hybrid lacZ, SD 0.22
[10] = tested on: OZ139 (CF877R) (synthetic); conditions: bacterial two-hybrid lacZ, SD 0.03
[11] = tested on: OZ129 (CF877R) (synthetic); conditions: bacterial two-hybrid lacZ, SD 0.07
[12] = tested on: OZ126 (CF877R) (synthetic); conditions: bacterial two-hybrid lacZ, SD 0.28
[13] = tested on: OZ138 (CF877R) (synthetic); conditions: bacterial two-hybrid lacZ, SD 0.41
[14] = tested on: OZ127 (CF877R) (synthetic); conditions: bacterial two-hybrid lacZ, SD 0.02
[15] = tested on: OZ122 (CF877R) (synthetic); conditions: bacterial two-hybrid lacZ, SD 0.59
[16] = tested on: OZ120 (CF877R) (synthetic); conditions: bacterial two-hybrid lacZ, SD 0.01
[17] = tested on: OZ125 (CF877R) (synthetic); conditions: bacterial two-hybrid lacZ, SD 0.85
[18] = tested on: OZ124 (CF877R) (synthetic); conditions: bacterial two-hybrid lacZ, SD 0.20
[19] = tested on: OZ131 (CF877R) (synthetic); conditions: bacterial two-hybrid lacZ, SD 0.12
[20] = tested on: OZ128 (CF877R) (synthetic); conditions: bacterial two-hybrid lacZ, SD 0.07
[21] = tested on: OZ135 (CF877R) (synthetic); conditions: bacterial two-hybrid lacZ, SD 0.07
[22] = tested on: OZ141 (CF877R) (synthetic); conditions: bacterial two-hybrid lacZ, SD 0.08
[23] = tested on: OZ133 (CF877R) (synthetic); conditions: bacterial two-hybrid lacZ, SD 0.05
[24] = tested on: OZ110 (CF877L) (synthetic); conditions: bacterial two-hybrid lacZ, SD 0.15; marked + in table
[25] = tested on: OZ116 (CF877L) (synthetic); conditions: bacterial two-hybrid lacZ, SD 0.38
[26] = tested on: OZ118 (CF877L) (synthetic); conditions: bacterial two-hybrid lacZ, SD 0.08
[27] = tested on: OZ107 (CF877L) (synthetic); conditions: bacterial two-hybrid lacZ, SD 0.58
[28] = tested on: OZ114 (CF877L) (synthetic); conditions: bacterial two-hybrid lacZ, SD 0.18
[29] = tested on: OZ117 (CF877L) (synthetic); conditions: bacterial two-hybrid lacZ, SD 0.33
[30] = tested on: OZ108 (CF877L) (synthetic); conditions: bacterial two-hybrid lacZ, SD 0.51
[31] = tested on: OZ109 (CF877L) (synthetic); conditions: bacterial two-hybrid lacZ, SD 0.20
[32] = tested on: OZ111 (CF877L) (synthetic); conditions: bacterial two-hybrid lacZ, SD 1.90; marked + in table
[33] = tested on: OZ112 (CF877L) (synthetic); conditions: bacterial two-hybrid lacZ, SD 0.55
[34] = tested on: OZ115 (CF877L) (synthetic); conditions: bacterial two-hybrid lacZ, SD 0.12
[35] = tested on: OZ113 (CF877L) (synthetic); conditions: bacterial two-hybrid lacZ, SD 0.20

**Q.** For “GAGTGGTTA (double strand) [CF877R half-site]”, which activity (fold activation) [1] is on record?
**A.** Its activity (fold activation) is 2.78.

**Q.** And the activity (fold activation) [2]?
**A.** Its activity (fold activation) is 2.16.

**Q.** And the activity (fold activation) [3]?
**A.** Its activity (fold activation) is 2.91.

**Q.** What about the activity (fold activation) [4] of the same sequence?
**A.** The activity (fold activation) was 2.73.

**Q.** What about the activity (fold activation) [5] of the same sequence?
**A.** Its activity (fold activation) is 5.03.

**Q.** What about the activity (fold activation) [6] of the same sequence?
**A.** The activity (fold activation) was 2.99.

**Q.** And the activity (fold activation) [7]?
**A.** Its activity (fold activation) is 3.71.

**Q.** And the activity (fold activation) [8]?
**A.** Its activity (fold activation) is 2.26.

**Q.** What about the activity (fold activation) [9] of the same sequence?
**A.** Its activity (fold activation) is 2.47.

**Q.** What about the activity (fold activation) [10] of the same sequence?
**A.** Its activity (fold activation) is 2.74.

**Q.** What about the activity (fold activation) [11] of the same sequence?
**A.** The activity (fold activation) was 2.55.

**Q.** What about the activity (fold activation) [12] of the same sequence?
**A.** The activity (fold activation) was 2.57.

**Q.** What about the activity (fold activation) [13] of the same sequence?
**A.** The activity (fold activation) was 2.52.

**Q.** And the activity (fold activation) [14]?
**A.** The activity (fold activation) was 1.6.

**Q.** What about the activity (fold activation) [15] of the same sequence?
**A.** Its activity (fold activation) is 4.72.

**Q.** What about the activity (fold activation) [16] of the same sequence?
**A.** Its activity (fold activation) is 2.53.

**Q.** What about the activity (fold activation) [17] of the same sequence?
**A.** Its activity (fold activation) is 4.

**Q.** And the activity (fold activation) [18]?
**A.** The activity (fold activation) was 4.41.

**Q.** And the activity (fold activation) [19]?
**A.** Its activity (fold activation) is 2.08.

**Q.** And the activity (fold activation) [20]?
**A.** Its activity (fold activation) is 2.12.

**Q.** What about the activity (fold activation) [21] of the same sequence?
**A.** The activity (fold activation) was 2.25.

**Q.** What about the activity (fold activation) [22] of the same sequence?
**A.** Its activity (fold activation) is 2.87.

**Q.** What about the activity (fold activation) [23] of the same sequence?
**A.** The activity (fold activation) was 3.24.

**Q.** “GTGGAATTA (double strand) [CF877L half-site]” was tested. Which activity (fold activation) [24] did it give?
**A.** The activity (fold activation) was 1.61.

**Q.** And the activity (fold activation) [25]?
**A.** The activity (fold activation) was 2.53.

**Q.** And the activity (fold activation) [26]?
**A.** The activity (fold activation) was 3.55.

**Q.** What about the activity (fold activation) [27] of the same sequence?
**A.** The activity (fold activation) was 1.92.

**Q.** And the activity (fold activation) [28]?
**A.** Its activity (fold activation) is 2.95.

**Q.** And the activity (fold activation) [29]?
**A.** The activity (fold activation) was 3.87.

**Q.** What about the activity (fold activation) [30] of the same sequence?
**A.** Its activity (fold activation) is 2.31.

**Q.** What about the activity (fold activation) [31] of the same sequence?
**A.** Its activity (fold activation) is 2.83.

**Q.** And the activity (fold activation) [32]?
**A.** The activity (fold activation) was 2.2.

**Q.** What about the activity (fold activation) [33] of the same sequence?
**A.** The activity (fold activation) was 2.52.

**Q.** And the activity (fold activation) [34]?
**A.** The activity (fold activation) was 2.71.

**Q.** And the activity (fold activation) [35]?
**A.** Its activity (fold activation) is 1.61.
